In publication PMC6911004, “Fragment-based screening identifies molecules targeting the substrate-binding ankyrin repeat domains of tankyrase” (Scientific Reports, 2019):

Tests used:
TNKS2 ARC4 [1] = molecular target: T1, TNKS2 ARC4 (Homo sapiens, UniProt Q9H2K2); experiment: Differential scanning fluorimetry (DSF); assay type: binding; conditions: ARC 20 μM + 3BP2 TBM peptide 200 μM, inflection point method
T1 construct: The cell was filled with TNKS2 ARC4 (488–649); His6-GST; made in house; host or cells: E. coli
T1 sequence (Q9H2K2 488-649): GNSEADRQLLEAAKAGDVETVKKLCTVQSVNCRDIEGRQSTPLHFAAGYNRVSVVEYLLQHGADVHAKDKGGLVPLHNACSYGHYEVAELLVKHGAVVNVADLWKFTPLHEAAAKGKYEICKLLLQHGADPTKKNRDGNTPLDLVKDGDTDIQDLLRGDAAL
Experimental: For the experiment shown in Fig. 2A, ARC and 3BP2 TBM peptide concentrations were 20 and 200 μM, respectively, in 50 mM HEPES-NaOH pH 7.5, 100 mM NaCl, 2 mM TCEP and a total volume of 25 μL. SYPRO Orange was added at 5×. Data were recorded from 4–95 °C, with the temperature ramped by 0.5 °C every 15 s, using a CFX384 thermal cycler (Bio-Rad). Data were analysed by non-linear regression in GraphPad Prism using a Boltzmann sigmoid with linear baselines. ΔTm values were determined using the inflection point method.

TNKS2 ARC4 [2] = molecular target: T1, TNKS2 ARC4; experiment: Fluorescence polarisation (FP) competition assay with Cy5-labelled TBM peptide probe; assay type: binding; conditions: 5 nM Cy5-RSPPDGQS probe, 5 µM TNKS2 ARC4
Excerpt: Given the anticipated impairment of cell permeability by the N-terminal TBM arginine, we investigated whether the guanidine group could be substituted. To prioritise synthesis efforts, we followed an in-silico docking approach, exploring the importance of the positive charge and hydrogen bonding interactions, linker lengths/flexibility and side chain geometry (see Supplementary Materials and Methods for details). From commercially available side chain alternatives, we identified five potential candidates for R replacements: 1H-imidazole-5-pentanoic acid, 1H-imidazole-1-pentanoic acid, 7-aminoheptanoic acid, D-arginine and L-citrulline (Supplementary Fig. 1). We next synthesised 3BP2 TBM octapeptides, incorporating the five arginine substituents at position 1, followed by fluorescence polarisation (FP) assays to assess competition of the peptides with a Cy5-labelled TBM peptide probe (Supplementary Fig. 1). We used a 16-mer TBM peptide (LPHLQRSPPDGQSFRSW, W introduced to measure A280) derived from the model substrate 3BP2, a signalling adapter protein[4], as a positive control for a competitor, and a corresponding non-binding TBM peptide bearing a glycine-to-arginine substitution at position 6[4] as a negative control. […]
Fluorescence polarisation assay
Unlabelled arginine substituent peptides were titrated up to 1 mM in the presence of 5 nM of a labelled peptide probe (Cy5-RSPPDGQS, JPT Peptide Technologies) and 5 µM TNKS2 ARC4. 3BP2 16-mer peptide was used as a positive control, and the same peptide with the glycine at position 6 mutated to arginine (G6R) was used as a negative control. Plus F ProxiPlates (PerkinElmer) were used with a 2103 Envision Multilabel plate reader (PerkinElmer), fitted with 620 nm (excitation) and 688 nm (emission) filters. Filter bandwidths were 10 nm. A Nanodrop 2000 was used for measuring protein and probe concentrations by UV absorption. TNKS2 ARC4 protein was thawed from -80 ° C, and centrifuged at 13,000 […]
Two independent experiments were performed in technical duplicate. A 2´ stock solution containing TNKS2 ARC4 protein (10 µM) and fluorescently tagged probe (10 nM) in assay buffer (25 mM HEPES-NaOH pH 7.5, 100 mM NaCl, 1 mM TCEP, 0.01% CHAPS) was prepared. A 2-fold dilution series of untagged peptide in assay buffer was made (0 – 2 mM).
Protein and peptide stock solutions were mixed 1:1. Blank samples contained assay buffer only. The plate was sealed, centrifuged for 1 min at 1000 ´ g, and then incubated in the dark for 30 min before reading. Readings were taken with 50 flashes per well, and measured in millipolarisation (mP) units. Data were exported to Microsoft Excel, and analysed in GraphPad Prism 6.0. The means of technical duplicate values were calculated for both experiments, and FP values were plotted against unlabelled peptide concentration. Curves were normalised using the overall mean maximum and minimum FP values of the control 3BP2 TBM peptide. Curves were fitted using a non-linear regression, log(inhibitor) vs. response – variable slope (four parameters) model.
Multiple sequence alignments and amino acid identity mapping
Sequences of tankyrase ARCs were aligned using ClustalX (version 2.0) 4. […]
Supplementary Figure 1. Binding of TBM peptides containing arginine substituents to TNKS2 ARC4, measured in a fluorescence polarisation (FP) competition assay. Data points are means of technical duplicates from two independent experiments. […]

In the case of “LPHLQRSPPDGQSFRSW [3BP2 16-mer peptide, 16-mer TBM peptide derived from 3BP2, W added for A280, N-terminus acetylated, C-terminus amide-capped; positive control, reference compound]”, the ΔTm (TNKS2 ARC4 [1]) is reported as 0.63 °C and the IC50 (TNKS2 ARC4 [2]) is reported as 22 µM.
